± gives the uncertainty stated by the source.

The data set can be described thus: amyloid nucleation score (Sup35N fusion, yeast selection) (log enrichment); library NNK1; higher = more nucleation; inactive = no reads after selection. The essentials: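 The nucleation score is a DiMSum log enrichment of output over input reads, centred on the mode score of non-aggregating sequences. Sequences under 100 input reads were excluded, and reads came from Illumina sequencing of plasmid inserts. Psi-negative yeast expressing Sup35N fused to peptides of 20 random codons were induced with 100 μM copper sulfate for 24 hours and grown 7 days at 30°C on medium lacking adenine and uracil. Random libraries had three technical output replicates.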
For the substance GVVSKQSYVRITLGTGPSGE, the amyloid nucleation score came to 0.476 ± 1.2.
Under GVVTLFTEYSSEPCRCGFRQ stands -0.21 ± 0.53; under GVWGQFQVSILWRHKCDLSG, “inactive”; under GVYSGVVSRSL, -0.21 ± 0.34.
The result for GWHLHFC reads 0.492 ± 0.22.
The result for GWMNCHNSTWRVGQALSSSR reads 0.282 ± 0.48; that for GWNHWADTSGTLGK, 0.502 ± 0.73; that for GWRSGVWLGSV, -1.32 ± 0.77.
Substance GWTIKSSYYG displayed an amyloid nucleation score of -0.906 ± 1.4.
Regarding GWWGHGFALRSFVLIAHLDV, the amyloid nucleation score was 0.06 ± 0.72.
The result for GWYFPILRDLRNVGGVF reads -0.677 ± 1.1; that for GWYFYG, 0.702 ± 0.32.
For the substance GYARILKDLGYPFPYDLQHL, the amyloid nucleation score entry is “inactive”.
Under GYENGDGDERD stands -0.403 ± 1.2.
Under GYGAKWVLVVS stands 1.25 ± 0.47; under GYGIGDGRVHTQNKVGCYGG, 1.33 ± 0.66; under GYIDFCFLWD, -0.333 ± 0.21.
On to GYLQR, for which the amyloid nucleation score came out at 0.158 ± 0.59.
With GYPIDGMYKRAALVRMDICF, the amyloid nucleation score worked out at 0.718 ± 0.92.
The result for GYPWVV reads 0.993 ± 0.55; that for GYSCRVIWNTNWTALFT, “inactive”.
In the case of GYSGGKLLVGGTYTRIV, the amyloid nucleation score was determined as 0.243 ± 0.43.
Under GYWGPVFSGRCIPVNNK stands -0.186 ± 1.5; under HAAEGIDESRKHSRHLIIVW, 0.029 ± 0.34; under HALMTARAFTCPWRMVVKFQ, 0.897 ± 0.61.
Under HANISLRSWRFRYHCREFKG stands 1.47 ± 0.2.
The substance HANLGFS yielded an amyloid nucleation score of -0.742 ± 0.78.
As for HCHFIFGGMIGS, the amyloid nucleation score is -0.144 ± 1.2.
Under HCINGCYNSEDVIIVDLLAF stands “inactive”; under HCPCGCYTPFLAKRMSSVLV, 0.362 ± 0.26.
The substance HCRYMMSRVILSCILARPQ showed an amyloid nucleation score of 2.55 ± 0.15.
The result for HDLEIPICTWEYSVVIQGLQ reads 0.005 ± 1.4.
On to HEFHRLDVAVYRG, for which the amyloid nucleation score was -0.132 ± 0.29.
Turning to HEPFDSDHTVARRETCLFGR, the amyloid nucleation score is -0.928 ± 0.52.
The result for HEVWH reads -0.379 ± 0.55; that for HFCFGC, 7.377 ± 0.062.
The result for HFGAYLVVM reads -0.299 ± 0.35; that for HFNYNNTSMFSLTHSWHGIM, 4.71 ± 0.089.
In turn, HFRDCVPYFMVSRSRGELGE registered an amyloid nucleation score of -0.42 ± 0.75.
The result for HFYFIYCSQIQVFKQV reads 7.422 ± 0.065.
On to HGIIHFVLQMW, for which the amyloid nucleation score is 1.85 ± 0.49.
Under HGLAYCGRQLFGARFILRYR stands 0.255 ± 0.23; under HGRLTYSDVVNVRTFPGLMK, -0.232 ± 0.25.
HGRQE had an amyloid nucleation score of 0.184 ± 1.
Regarding HGSIQSV, the amyloid nucleation score result is “inactive”.
The result for HGYFSNMWSYRRYQLLKLSP reads 0.664 ± 0.77; that for HHLVLQRD, 0.347 ± 0.28; that for HHMRCLGTLNNLCKCCFEER, 3.41 ± 0.11.
The result for HHNNDSDYKLREN reads 0.116 ± 0.48; that for HHSYKYCKLAFWTRSSKWNR, 0.7 ± 0.71; that for HHWNLIEHYMLDECMEHLNS, -0.183 ± 0.31.
Substance HILSHFVSCSRYL showed an amyloid nucleation score of -0.09 ± 1.4.
On to HILTMDLLPTPLSRQLRNMN, for which the amyloid nucleation score was -0.763 ± 0.97.
In the case of HISLHYYKICNRFDLYNKDS, the amyloid nucleation score came out at 7.107 ± 0.065.
The result for HIYSRYQERRLVFVWYACND reads 0.134 ± 0.38.
Consider HKDVQGYVD, for which the amyloid nucleation score is 1.01 ± 0.97.
HLCVTTGSSLL yielded an amyloid nucleation score of -0.58 ± 0.98.
In the case of HLFTGNAYRGTRMGKLVGSH, the amyloid nucleation score was 0.328 ± 0.41.
In the case of HLIDVTILGWDEVSIM, the amyloid nucleation score was 1.26 ± 0.37.
Under HLIWL stands -0.203 ± 1.1.
Consider HLKHVWSYLPSSNVEEMQ, for which the amyloid nucleation score was determined as 0.766 ± 0.63.
Under HLWLFAGYMLLLKPKLKVCT stands -0.625 ± 0.41; under HMLGKASGVLFNQRAVTGG, 0.696 ± 0.79; under HMTLCRRGFISGQADYFVQ, 0.275 ± 1.2.
The result for HNCDYNCFNRGAHRVSEVGI reads “inactive”.
On to HNLDCKRVGSARTWIEWWVG, for which the amyloid nucleation score was found to be 0.07 ± 0.3.
HNMHFSPWIKCNSVYEFSGR yielded an amyloid nucleation score of 1.56 ± 0.73.
HNQCHVKYDYHYL came in with an amyloid nucleation score of -0.183 ± 0.78.
HPSSKLSRMCLD had an amyloid nucleation score of 0.717 ± 0.93.
In the case of HQELMSFFLLCLH, the amyloid nucleation score entry was “inactive”.
The result for HQLAFYRFCIASSCSWAYLS reads 0.825 ± 0.41.
The result for HQTEEISKSSFFQCNMVQCW reads 2.94 ± 0.071; that for HQVIQGVSYSTCG, 0.107 ± 0.38; that for HQVVRSFGELHLLWCRLDEG, 0.204 ± 0.45.
The result for HRAWAQVFFPELARSLVRSQ reads 0.216 ± 0.6; that for HRILVGGFRSCVMT, 0.311 ± 0.32.
As for HRRAFRQVVVTAGPKQASPM, the amyloid nucleation score turned out to be 0.001 ± 0.56.
The result for HRRFLAPME reads 0.385 ± 0.3; that for HRSRLFAISERFEDIFYI, 0.611 ± 0.78; that for HRTDYENFPSSKSRRMLVRV, 0.436 ± 1.2.
For the substance HRWSDVFPWRTVKMYQLSRC, the amyloid nucleation score is 0.552 ± 0.76.
Under HSAALWIVWR stands -0.358 ± 0.62.
Under HSAITNCRRVVTALIYRRVM stands -0.875 ± 2.4.
For HSALIQSIEGVINVGCGVKK, the amyloid nucleation score was found to be 1.25 ± 0.23.
The result for HSCYLYTSLLIFDMCRYWFL reads 0.719 ± 0.48.
As for HSFMYKENAGMSGTLR, the amyloid nucleation score stood at 0.187 ± 0.48.
The result for HSHKGGWEWVSWLRREYWIA reads 0.618 ± 0.47; that for HSIWSRERVVVGVIYVCNFN, 7.227 ± 0.048.
The result for HSLSWDNKLCLCSAN reads 0.099 ± 0.3.
In the case of HSMVFNLEWFKARQDGDLN, the amyloid nucleation score amounted to 1.5 ± 0.34.
Under HSNCVLVVDMLAQWLMRAGD stands 0.384 ± 0.79.
Regarding HSVIIALRGCIRIG, the amyloid nucleation score worked out at 2.25 ± 0.15.
As to HTLTPAHPTNGVVT, the amyloid nucleation score was -0.871 ± 1.3.
HTVPILRSAVPDSDARAKSQ returned an amyloid nucleation score of 0.493 ± 0.4.
Consider HVGSATASRVMSGCGSTVSY, for which the amyloid nucleation score was -1.83 ± 1.7.
As to HVMRSSGRHGRRRLT, the amyloid nucleation score was -0.631 ± 1.1.
The result for HVNSFKLGNGSFHFWY reads 0.634 ± 0.38.
Under HWLPHDVLSMWW stands 1.29 ± 0.67.
The result for HWVDLVGESNNSISFAVVFC reads 4.9 ± 0.079; that for HYIPRRN, -0.016 ± 1.7; that for HYNFKDMNYKPLIVIEMHEW, 5.33 ± 0.055.
HYQMLDAISRSSVYVLSKSR: the amyloid nucleation score was -0.239 ± 0.29.
For HYRSTGMMESSRG, the amyloid nucleation score is 0.522 ± 0.6.
Under HYSTEEGRVCGSVKQQKAWL stands -0.296 ± 0.52; under HYYANSGVCSTSVNLFRLGS, 6.529 ± 0.049.
Turning to IAAYLVVDILPGSI, the amyloid nucleation score is -0.036 ± 0.6.
As to IAGFEVARPSNSKTFFPSKF, the amyloid nucleation score is 2.07 ± 0.14.
Under IALASCVCLSACWTLDVNSM stands 0.989 ± 0.31; under IAPTFSYMMERSLFTVGYDM, -0.042 ± 0.41.
In turn, IASMSVFPSHMCFVGTSTVR came in with an amyloid nucleation score of -0.417 ± 0.34.
The result for IATGMWLYVSLVTPQHSLVN reads 0.101 ± 0.49.
Substance ICAPVEIL had an amyloid nucleation score of -0.176 ± 0.76.
Under ICFNFYITYSASDALSRTCY stands 8.287 ± 0.047; under ICGQLPISMGVLSIFWWFES, 0.331 ± 0.79.
Under ICQTFASCEFDGCLLH stands 3.47 ± 0.12; under ICSNGLLIMNVE, 1.13 ± 0.97.
With ICSWVHDQWAFYYISLYYVK, the amyloid nucleation score is -1.2 ± 0.74.
Turning to ICTVSLLYFVYDKYCHNATL, the amyloid nucleation score was -0.444 ± 0.56.
In turn, ICVLKKFLVSIQSVIY had an amyloid nucleation score of 1.46 ± 0.74.
Under IDEVEGIRRFGLWELRLVCP stands -0.225 ± 0.28; under IDHSTRVNPGEPLQVLRGGL, 4.29 ± 0.088.
For IDIWVLLMNHGMKASPGDLE, the amyloid nucleation score was -0.479 ± 0.42.
Substance IDKMELFSRSKHKWYMASAI displayed an amyloid nucleation score of -0.267 ± 0.79.
Under IDKSVGLVHKTHYWFQPWYK stands 0.445 ± 0.43; under IDMCYWISVPAKNVHVIDIP, 1.29 ± 0.6; under IDRSLETTTVRGLVVRCYNG, 0.369 ± 0.35.
Under IDSVQFTLQTASHPRSDDDC stands -0.143 ± 0.58; under IDSYITNKGSRSAKCHPDDS, -0.701 ± 1.
Turning to IECCFAYGRYLMWVGMYGSK, the amyloid nucleation score was 0.79 ± 0.59.
In turn, IECLLDRILDTLYVRLNFIG displayed an amyloid nucleation score of 0.616 ± 0.79.
For the substance IEGMCGDMVMTYYIFLDSCG, the amyloid nucleation score was found to be 1.07 ± 0.36.
IELDYYIINIVWPPAGNYRH came in with an amyloid nucleation score of 6.734 ± 0.062.
The substance IENGLYMSLYLGNQRI registered an amyloid nucleation score of 1.47 ± 0.29.
Take IERKLCKIGVMK: the amyloid nucleation score amounted to 0.597 ± 0.65.
Regarding IFAMV, the amyloid nucleation score entry is “inactive”.
Under IFCGRIKQCSLASHCKLEWG stands 0.69 ± 0.41; under IFCYMNYGS, 0.554 ± 0.51.
Consider IFIFYGTRGSFRLRVAY, for which the amyloid nucleation score was determined as 2.72 ± 0.24.
The result for IFLGPVLFVGDTRFCHVLIN reads 7.789 ± 0.049; that for IFLYDRLNGDPFSSRW, 0.729 ± 0.9.

Source of the values: the supplement of paper PMC12042874.
